Legend:
[1] = target: T1, recombinant soluble human IL-6 receptor (SR344) (human, UniProt P08887 20-344, biotinylated (sites not given) where immobilized via streptavidin or used in phage ELISA); assay: SPR Biacore T100, integrated RU of SR344 bound over ten cycles, 37 C
T1 construct: also called soluble IL-6 receptor; membrane-type IL-6 receptor (when biotinylated and immobilized on the chip)
T1 sequence (looked up): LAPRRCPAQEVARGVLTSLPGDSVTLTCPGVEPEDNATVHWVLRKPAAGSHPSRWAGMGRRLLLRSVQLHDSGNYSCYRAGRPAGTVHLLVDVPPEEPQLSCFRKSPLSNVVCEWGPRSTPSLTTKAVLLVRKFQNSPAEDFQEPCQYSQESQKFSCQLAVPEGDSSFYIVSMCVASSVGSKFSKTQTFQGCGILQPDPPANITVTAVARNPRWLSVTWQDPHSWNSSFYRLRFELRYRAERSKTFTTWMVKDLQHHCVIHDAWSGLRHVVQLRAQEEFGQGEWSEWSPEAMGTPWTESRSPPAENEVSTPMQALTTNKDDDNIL
Method: The produced pH-dependent binding clones described above were analyzed using a Biacore T100™ surface plasmon resonance system (GE Healthcare) for their ability to bind to the antigen SR344 multiple times at pH 5.8 and pH 7.4. More specifically, the analysis was carried out as follows. All the measurements were carried out at 37° C. First, the sample antibodies described above were bound onto a recomb-protein A/G (Pierce)-immobilized sensor chip by amine-coupling, where the mobile phase buffer was 10 mM MES (pH 5.8), 150 mM NaCl, and 0.05% TWEEN® 20 (polyoxyethelene sorbitan monolaurate) (step 1). SR344 adjusted to a concentration of about 40 nM was injected as an analyte for 3 minutes at pH 7.4 and allowed to bind (the buffer for injected SR344 was 10 mM MES (pH 7.4), 150 mM NaCl, and 0.05% TWEEN® 20 (polyoxyethelene sorbitan monolaurate)) (step 2). Subsequently, the injection of SR344 was discontinued and a mobile phase of pH 5.8 was allowed to flow for about 70 seconds to expose the antibody/SR344 complex under acidic conditions (step 3). Ten sets of this binding (step 2)/acidity exposure (step 3) process were continuously repeated to observe the sensorgram in real-time, which is shown in FIG. 11. […] In the 10-set repetition of the binding (step 2) and acidic exposure (step 3), almost all H170/L82 and CLH5/L73 antibodies were able to bind to new antigens in each set. […]

[2] = target: T1, recombinant soluble human IL-6 receptor …; assay: SPR Biacore T100, antibody captured by anti-IgG gamma chain F(ab)2, SR344 analyte, pH 7.4, 37 C
Method: Kinetic analyses of antigen-antibody reactions at pH 7.4 were carried out on the four types of antibodies, i.e., the humanized PM1 antibody (wild type: WT), and […], H3pI/L73-IgG1, Fv2-IgG1, and Fv4-IgG1 constructed in Examples 2 and 10, by using a Biacore T100™ surface plasmon resonance system (GE Healthcare) (buffer: 10 mM MES (pH 7.4), 150 mM NaCl, 0.05% TWEEN® 20 (polyoxyethelene sorbitan monolaurate)). Each antibody was bound on a sensor chip on which an anti-IgG γ chain specific F(ab)₂ (Pierce) was immobilized by amine coupling, and then, SR344 adjusted to a concentration of 9.8 to 40 nM was injected thereto as an analyte. The association to and dissociation from SR344 were observed on a real-time basis for the pH-dependent-binding clones. All the measurements were carried out at 37° C. Association rate constants kₐ (1/Ms) and dissociation rate constants kd (1/s) were calculated using Biacore T100™ Evaluation Software (GE Healthcare), and dissociation constants KD (M) were calculated on the basis of those values (Table 7).
The association to and dissociation from SR344 were observed on a real-time basis using the same method as Example 10 for the eleven types of antibodies, humanized PM1 antibody (wild type: WT) and H3pI/L73-IgG1, Fv1-M71, Fv1-M73, Fv2-IgG1, Fv3-M71, Fv3-M73, Fv4-IgG1, Fv4-IgG2, Fv4-M58, and Fv4-M73, constructed as described above. The association rate constants kₐ (1/Ms) and dissociation rate constants kd. (1/s) were calculated by analysis in the same manner, and the dissociation constants KD (M) were calculated on the basis of those values (Table 11).

[3] = target: T1, recombinant soluble human IL-6 receptor …; assay: SPR Biacore T100, biotinylated SR344 on streptavidin chip (model of membrane-type IL-6 receptor), antibody as analyte, 37 C
Method: Binding to the membrane-type IL-6 receptor was evaluated by evaluating binding to the IL-6 receptor immobilized on a sensor chip. SR344 was biotinylated in accordance with a method known among persons with ordinary skill in the art, and the biotinylated SR344 was immobilized on the sensor chip via streptavidin using the affinity between streptavidin and biotin. All the measurements were carried out at 37° C. The mobile phase buffer was 10 mM MES (pH 5.8), 150 mM NaCl and 0.05% TWEEN® 20 (polyoxyethelene sorbitan monolaurate).
The pH-dependently-binding clones were injected under the condition of pH 7.4 to allow them to bind to SR344, and then, the pH-dependent dissociation of each clone at the pH of the mobile phase, pH 5.8, was observed. The results are shown in FIG. 21 (results for Fv1-M71, Fv1-M73, Fv3-M71, and Fv3-M73 are shown in FIG. 21, while results for other clones are shown in FIGS. 17 and 19). Analyses were carried out in the same manner as in Example 10 and the pH dependencies of the dissociation rate constants of all of the eleven types of clones are shown in Table 12.

B1: H170/L82 (antibody, IgG1, V domains shown)
VH: QVQLQESGPGLVKPSETLSLTCAVSGHSISHHHAHSWVRQPPGEGLEWIGYISYSGITHYNPHLKGRVTISRDTSKNQFSLKLSSVTAADTAAYYCARVLARITAMDHWGEGTLVTVSS
VL: DIQMTQSPSSLSASVGDSVTITCQASQDISSHLNWYQQKPGKAPELLIYYGSHLHSGVPSRFSGSGSGTDFTFTISSLEAEDAATYYCGQGNRLPYTFGQGTKVEIE
notes: expressed and purified as IgG (IgG1); also called H170/L82-IgG1
- total amount of antigen bound over ten cycles relative to WT [1]: ~4 fold

B2: Fv4-IgG1 (antibody)
heavy: not shown
light: DIQMTQSPSSLSASVGDSVTITCQASTDISSHLNWYQQKPGKAPELLIYYGSHLLSGVPSRFSGSGSGTDFTFTISSLEAEDAATYYCGQGNRLPYTFGQGTKVEIERTVAAPSVFIFPPSDEQLKSGTASVVCLLNNFYPREAKVQWKVDNALQSGNSQESVTEQDSKDSTYSLSSTLTLSKADYEKHKVYACEVTHQGLSSPVTKSFNRGEC
notes: VH3-IgG1 / VL3-CK
- Kd [2]: 1.4 nM
- koff [2]: 0.001 s⁻¹
- kon [2]: 720000 M⁻¹ s⁻¹
- kd (pH 5.8)/kd (pH 7.4) [3]: 5.56
